Patent US12497460B2, “Anti-MSR1 antibodies and methods of use thereof” (REGENERON PHARMACEUTICALS, INC., priority 2018, dated 2025)

T1: RAW264.7 cells (MSR1 positive) (Mus musculus, UniProt P30204)
T1 construct: using MSR1 positive RAW264.7 cells (ATCC, Catalog #TIB-71); host or cells: RAW264.7
T1 sequence (P30204 1-458): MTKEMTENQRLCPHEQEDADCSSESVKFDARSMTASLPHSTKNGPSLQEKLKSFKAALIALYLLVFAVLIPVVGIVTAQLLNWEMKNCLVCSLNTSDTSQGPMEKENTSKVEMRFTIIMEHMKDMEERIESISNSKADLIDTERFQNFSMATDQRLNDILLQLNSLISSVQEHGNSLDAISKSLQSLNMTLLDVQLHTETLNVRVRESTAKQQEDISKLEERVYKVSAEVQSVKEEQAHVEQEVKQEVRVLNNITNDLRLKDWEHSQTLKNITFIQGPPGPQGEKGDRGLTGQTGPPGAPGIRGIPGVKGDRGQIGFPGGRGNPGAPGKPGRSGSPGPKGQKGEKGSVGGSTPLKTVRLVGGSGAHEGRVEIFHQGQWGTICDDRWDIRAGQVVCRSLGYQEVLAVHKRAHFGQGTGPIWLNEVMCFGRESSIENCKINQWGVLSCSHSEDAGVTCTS

B1: H1H21227N-N297Q: "modified versions of 21227N (H1H21227N-N297Q and H1H21227N-N297D)"; anti-MSR1 antibody "with a N297Q single point mutation" (antibody, V domains shown)
VH: QVQLVQSGAEVKKPGASVKVSCKVSGYTLTELSIHWVRQVPGKGLEWMGGFDPEEGETIFAQEFRDRVTLTEDTSPDTAYMELSSLKSEDAAVYYCTTPRYCNNGICYDYWGQGTLVTVSS
VL: DIQMTQSPSSLSASVGDRVTITCRASQSISNYLNWYQQKPGKAPKLLIYTASSLQSGVPSRFSGSGSGTDFTLTISSLQTEDFATYYCQQSYSNFPITFGQGTRLEIKR
B2: H1H21234N-N297Q-LP13 (conjugate)
VH: QVQLQESGPGLVKPSETLSLTCTVTGGSISRNYWSWIRQPPGKGLEWIGYIYYSGSIDYNPSLKSRVTISVDTSKNQFSLKLSSMTAADTAVYYCARDRWNWKYGMDVWGQGTTVIVSS
VL: EIVLTQSPGTLSLSPGERATLSCRASQTVRNNYLAWYHQKPGQAPRLLIYGASSRATGIPDRFSGSGSGTDFTLTISRLEPEDFTVYYCHQYGNSPWTFGQGTKMEIKR

How the values were obtained:
[1] = target: T1, RAW264.7 cells (MSR1 positive); test: Flow cytometry binding to cell surface-expressed mouse MSR1; type: cell-based; conditions: 10 μg/mL antibody
Method: To block binding to Fc receptors, RAW264.7 cells were incubated for 30 minutes at 4° C. with 500 μg/mL mouse IgG (Jackson ImmunoResearch, Cat #015-000-003) diluted in staining buffer, while B16F10.9 cells remained in staining buffer. Following Fc receptor blocking, 10 μg/mL of anti-MSR1 antibodies or an isotype control antibody were added to the cells and were subsequently incubated for 30 minutes on ice. […] The signal to noise (S/N) was determined by calculating the ratio of the anti-MSR1 antibodies or the control antibodies MFI to the unstained sample MFI (Table 11).

Msr1^hu/hu ApoE^−/− mice = test: In vivo LPS-induced cytokine production in serum; design: species or system mouse; conditions: 24 hours before in vivo LPS
Method: To examine the anti-inflammatory effect of the anti-MSR1 antibody-steroid conjugates, an ex-vivo and in vivo LPS-induced inflammatory immune response model was performed.
Generation of a mouse inflammatory immune response model. Mice homozygously expressing human MSR1 extracellular domain in place of the mouse MSR1 extracellular domain and with a homozygous deletion of the ApoE gene were utilized (resulting mice referred to as Msr1^hu/hu ApoE^−/− mice).
Assay protocol for in vivo LPS-induced responses. In in vivo LPS challenge experiments, mice were intraperitoneally administered with 10 μL/g of decreasing concentrations of anti-MSR1 antibody-steroid conjugates (H1H21234N-N297Q-LP13) and isotype control steroid conjugate (Isotype control-N297Q-LP13) at 24 hours prior to in vivo LPS challenge. PBS and free steroid P4 were intraperitoneally injected at 2 hours prior to in vivo LPS challenge. At 0 hour time point, three large drops of blood (volume ˜ 100 μL) were collected from the maxillary vein of each mouse into serum gel separator tubes. The tubes were centrifuged at 2200-2500 rpm for 15 minutes, and the serum was collected into 96-well plates for subsequent measurement of cytokines. At 18 hours post in vivo LPS challenge, the peritoneal cells were obtained from periotenal cavity as aforementioned for subsequent flow cytometry analysis.

Molecule | RAW264.7 MFI [1] | RAW264.7 S/N [1] | signal to noise (S/N), MFI over unstained sample MFI [1] | Cytokine IL-6 in serum (Msr1^hu/hu ApoE^−/− mice; 10.67 mg/kg) [ng/mL] | Cytokine KC-GRO in serum (Msr1^hu/hu ApoE^−/− mice; 10.67 mg/kg) [ng/mL] | Cytokine TNF-α in serum (Msr1^hu/hu ApoE^−/− mice; 10.67 mg/kg) [ng/mL] | Cytokine IL-6 in serum (Msr1^hu/hu ApoE^−/− mice; 32.03 mg/kg) [ng/mL] | Cytokine KC-GRO in serum (Msr1^hu/hu ApoE^−/− mice; 32.03 mg/kg) [ng/mL] | Cytokine TNF-α in serum (Msr1^hu/hu ApoE^−/− mice; 32.03 mg/kg) [ng/mL] | Cytokine IL-6 in serum (Msr1^hu/hu ApoE^−/− mice; 96.08 mg/kg) [ng/mL] | Cytokine KC-GRO in serum (Msr1^hu/hu ApoE^−/− mice; 96.08 mg/kg) [ng/mL] | Cytokine TNF-α in serum (Msr1^hu/hu ApoE^−/− mice; 96.08 mg/kg) [ng/mL]
B1 | 12810 | 5 | 5 | – | – | – | – | – | – | – | – | –
B2 | – | – | – | 33 ± 8.1 | 13.3 ± 1.2 | 0.51 ± 0.08 | 15.34 ± 5.2 | 10.6 ± 2.8 | 0.48 ± 0.18 | 7.7 ± 3.1 | 5.1 ± 1.5 | 0.42 ± 0.14
